In PMC8410842, “Heimdallarchaea encodes profilin with eukaryotic-like actin regulation and polyproline binding” (Communications Biology, 2021) one finds affinity and Kd data, which are given here for 3 molecules.

One assay addresses T1, ΔN-heimProfilin (Candidatus Heimdallarchaeota archaeon LC_3, UniProt A0A1Q9NL85).
T1 construct: gene HeimC3_27980; residues 1-23 (N-terminal extension) deleted; E. coli Rosetta DE3; His6-SUMO tag cleaved with Ulp1; 15N labelled; PDB 6YRR is the full-length parent
Briefly: NMR 1H-15N TROSY-HSQC titration. The following applies: 25 mM Tris-HCl pH 7.5, 50 mM NaCl, 5% glycerol, 298 K; acyl chains not given. The assay is classed as binding.

Assay [1] addresses both the full-length protein and ΔN-thorProfilin. Kind of assay: NMR titration; 1H-15N TROSY-HSQC; fixed thorProfilin or ΔN-thorProfilin (200 μM), increasing polyproline … (0, 5, 7 mM in the legend); 25 mM Tris-HCl pH 6.8, 150 mM NaCl; KD from fits of chemical shifts of a few residues.
For assay [2] the target is unchanged. Described as above. The source holds these as a separate data set.
Assay [3] addresses Heimdallarchaeota LC3 profilin (heimProfilin) (Candidatus Heimdallarchaeota archaeon LC_3). Kind of assay: ITC; profilin in the cell (approx. 0.1-0.5 mM), 20 injections of 1.0-14 mM polyproline (VASP); 50 mM Na3PO4 pH 7.5, 50 mM NaCl; 25 °C; triplicates.
The target of assay [4] is ΔN-heimProfilin (Candidatus Heimdallarchaeota archaeon LC_3). The assay is described as above.

Read-outs that look alike come from different tables or passages of the source.

Consider PIP2, for which the affinity at ΔN-heimProfilin is given as ~ 0.5–1 ± 0.3 mM.

B1: polyproline from VASP (…) (peptide)
peptide: PPPAPPLPAAQ
The Kd is the free concentration of one partner at which half of the binding sites on the other are occupied at equilibrium, for simple one-to-one binding. On to B1, for which the Kd in assay [1] fell in the range of 200 to 500 µM; in assay [2] it was 250 to 500 µM.

B2: polyproline motif of VASP (…) (peptide)
peptide: GAGGGPPPAPPLPAAQ
Consider B2, for which the Kd was 3300 µM in assay [3] and 300 µM in assay [4].
